Measurements reported in the supplement of paper PMC10065799, “High-throughput profiling of sequence recognition by tyrosine kinases and SH2 domains using bacterial peptide display” (eLife, 2023).

How the values were obtained:
MERTK = MERTK (UniProt Q12866); assay: phosphorylation enrichment, bacterial display (enrichment ratio); higher = better substrate or ligand; peptides without Tyr show the background
Fer (mouse) = assay: as above
c-Abl (mouse) = assay: as above
FGFR1 = FGFR1 (UniProt P11362); assay: as above
Sequence of FGFR1 (P11362 whole entry, looked up): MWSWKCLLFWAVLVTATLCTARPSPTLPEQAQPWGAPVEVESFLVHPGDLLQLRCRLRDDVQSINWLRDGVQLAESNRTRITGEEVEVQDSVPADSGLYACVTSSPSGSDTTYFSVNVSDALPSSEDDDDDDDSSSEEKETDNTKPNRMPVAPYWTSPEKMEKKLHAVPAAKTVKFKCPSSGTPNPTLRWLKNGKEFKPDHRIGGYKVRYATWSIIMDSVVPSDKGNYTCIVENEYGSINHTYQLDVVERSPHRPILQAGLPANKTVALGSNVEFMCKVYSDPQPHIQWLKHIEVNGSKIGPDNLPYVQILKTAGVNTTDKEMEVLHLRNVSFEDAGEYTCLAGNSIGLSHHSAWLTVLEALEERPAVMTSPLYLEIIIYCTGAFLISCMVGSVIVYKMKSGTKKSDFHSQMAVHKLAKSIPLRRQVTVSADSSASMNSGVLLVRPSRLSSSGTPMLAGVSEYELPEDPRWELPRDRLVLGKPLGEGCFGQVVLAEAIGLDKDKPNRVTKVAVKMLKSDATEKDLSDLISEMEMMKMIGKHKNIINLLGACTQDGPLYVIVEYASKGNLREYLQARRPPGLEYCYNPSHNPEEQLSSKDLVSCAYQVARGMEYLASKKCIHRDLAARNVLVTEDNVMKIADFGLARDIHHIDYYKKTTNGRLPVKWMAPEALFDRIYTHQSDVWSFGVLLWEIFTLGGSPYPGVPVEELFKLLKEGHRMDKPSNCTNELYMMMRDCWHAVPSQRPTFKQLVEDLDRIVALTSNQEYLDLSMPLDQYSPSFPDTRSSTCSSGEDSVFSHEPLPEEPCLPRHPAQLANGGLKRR

Fes = Fes (UniProt P07332); assay: as above
Sequence of Fes (P07332 whole entry, looked up): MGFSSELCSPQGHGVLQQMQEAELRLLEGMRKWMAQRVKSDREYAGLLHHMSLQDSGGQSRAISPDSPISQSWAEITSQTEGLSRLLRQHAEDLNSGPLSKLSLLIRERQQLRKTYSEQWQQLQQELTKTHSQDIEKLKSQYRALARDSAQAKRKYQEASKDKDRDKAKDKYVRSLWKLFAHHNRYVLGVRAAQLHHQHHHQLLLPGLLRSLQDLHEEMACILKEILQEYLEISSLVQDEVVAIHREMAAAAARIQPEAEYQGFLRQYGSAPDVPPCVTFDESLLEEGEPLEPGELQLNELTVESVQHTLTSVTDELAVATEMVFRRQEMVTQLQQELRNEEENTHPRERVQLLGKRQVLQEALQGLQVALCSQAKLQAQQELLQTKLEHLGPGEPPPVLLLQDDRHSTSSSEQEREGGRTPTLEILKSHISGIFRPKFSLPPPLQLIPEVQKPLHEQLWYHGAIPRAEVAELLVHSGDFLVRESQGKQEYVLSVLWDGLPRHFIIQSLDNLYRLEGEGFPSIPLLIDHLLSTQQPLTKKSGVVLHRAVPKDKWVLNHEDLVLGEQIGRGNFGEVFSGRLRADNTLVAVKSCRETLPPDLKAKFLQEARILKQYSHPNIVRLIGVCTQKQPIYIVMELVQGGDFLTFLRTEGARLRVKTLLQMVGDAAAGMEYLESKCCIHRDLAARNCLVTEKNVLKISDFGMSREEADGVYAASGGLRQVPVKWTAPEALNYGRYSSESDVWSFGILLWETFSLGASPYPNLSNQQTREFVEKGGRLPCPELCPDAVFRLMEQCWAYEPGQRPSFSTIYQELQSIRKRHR

FGFR3 = FGFR3 (UniProt P22607); assay: as above
EPHB1 = EPHB1 (UniProt P54762); assay: as above
Sequence of EPHB1 (P54762 whole entry, looked up): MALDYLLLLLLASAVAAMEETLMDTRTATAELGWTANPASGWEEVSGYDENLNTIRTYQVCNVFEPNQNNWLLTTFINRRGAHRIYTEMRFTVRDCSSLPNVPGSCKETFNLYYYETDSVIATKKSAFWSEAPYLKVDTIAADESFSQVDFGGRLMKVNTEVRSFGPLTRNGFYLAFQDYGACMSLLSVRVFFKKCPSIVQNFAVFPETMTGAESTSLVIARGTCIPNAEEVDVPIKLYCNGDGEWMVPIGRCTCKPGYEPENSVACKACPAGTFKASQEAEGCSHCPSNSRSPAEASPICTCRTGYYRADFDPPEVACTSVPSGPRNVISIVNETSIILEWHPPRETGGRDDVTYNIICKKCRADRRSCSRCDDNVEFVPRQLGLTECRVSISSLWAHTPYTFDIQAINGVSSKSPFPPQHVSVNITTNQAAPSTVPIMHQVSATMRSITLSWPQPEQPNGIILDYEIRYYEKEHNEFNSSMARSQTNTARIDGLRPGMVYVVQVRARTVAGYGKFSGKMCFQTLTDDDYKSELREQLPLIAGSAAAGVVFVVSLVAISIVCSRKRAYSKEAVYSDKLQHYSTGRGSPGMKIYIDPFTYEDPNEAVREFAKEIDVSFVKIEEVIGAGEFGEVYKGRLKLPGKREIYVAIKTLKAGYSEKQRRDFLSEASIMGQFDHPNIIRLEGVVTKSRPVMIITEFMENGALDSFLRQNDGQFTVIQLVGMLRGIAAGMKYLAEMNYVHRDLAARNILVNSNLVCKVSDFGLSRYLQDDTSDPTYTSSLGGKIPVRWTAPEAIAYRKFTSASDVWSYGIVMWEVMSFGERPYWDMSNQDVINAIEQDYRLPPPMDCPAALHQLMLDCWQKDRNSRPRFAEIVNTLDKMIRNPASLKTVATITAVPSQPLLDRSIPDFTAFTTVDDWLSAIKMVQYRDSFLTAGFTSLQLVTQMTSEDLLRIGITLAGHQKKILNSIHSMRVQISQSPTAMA

c-Src = assay: as above
AncSZ = assay: as above
Jak2 = Jak2 (UniProt O60674); assay: as above
Sequence of Jak2 (O60674 whole entry, looked up): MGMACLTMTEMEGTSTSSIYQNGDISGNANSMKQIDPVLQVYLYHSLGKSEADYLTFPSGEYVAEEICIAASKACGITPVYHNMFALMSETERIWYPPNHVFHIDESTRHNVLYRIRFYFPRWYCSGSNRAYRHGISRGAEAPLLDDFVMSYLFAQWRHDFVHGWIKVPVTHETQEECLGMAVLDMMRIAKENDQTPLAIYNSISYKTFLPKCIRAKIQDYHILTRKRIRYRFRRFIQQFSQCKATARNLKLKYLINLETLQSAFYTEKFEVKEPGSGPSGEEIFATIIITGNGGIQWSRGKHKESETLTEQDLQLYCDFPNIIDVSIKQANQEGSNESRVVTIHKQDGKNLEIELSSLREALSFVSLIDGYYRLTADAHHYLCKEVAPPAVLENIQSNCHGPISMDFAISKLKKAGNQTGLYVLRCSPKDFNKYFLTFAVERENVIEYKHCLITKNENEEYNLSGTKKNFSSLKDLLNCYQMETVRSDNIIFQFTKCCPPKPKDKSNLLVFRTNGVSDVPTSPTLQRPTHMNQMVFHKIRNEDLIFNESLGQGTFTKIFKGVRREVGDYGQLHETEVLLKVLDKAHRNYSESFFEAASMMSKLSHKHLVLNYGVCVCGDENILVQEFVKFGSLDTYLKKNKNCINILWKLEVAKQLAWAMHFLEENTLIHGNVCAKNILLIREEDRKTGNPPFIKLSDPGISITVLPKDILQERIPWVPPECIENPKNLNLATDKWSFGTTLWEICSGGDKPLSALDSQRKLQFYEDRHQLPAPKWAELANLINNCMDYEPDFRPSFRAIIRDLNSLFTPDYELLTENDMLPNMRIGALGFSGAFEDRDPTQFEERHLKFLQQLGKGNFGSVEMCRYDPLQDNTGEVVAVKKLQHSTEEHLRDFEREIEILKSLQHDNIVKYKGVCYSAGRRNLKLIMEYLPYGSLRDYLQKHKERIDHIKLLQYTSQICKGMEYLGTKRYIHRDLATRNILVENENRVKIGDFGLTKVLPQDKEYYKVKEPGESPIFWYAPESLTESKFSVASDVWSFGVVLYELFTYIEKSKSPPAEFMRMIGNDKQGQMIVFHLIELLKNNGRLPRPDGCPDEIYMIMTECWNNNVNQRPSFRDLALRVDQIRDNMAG

EPHB2 = EPHB2 (UniProt P29323); assay: as above
Fyn = Fyn (UniProt P06241); assay: as above
Sequence of Fyn (P06241 whole entry, looked up): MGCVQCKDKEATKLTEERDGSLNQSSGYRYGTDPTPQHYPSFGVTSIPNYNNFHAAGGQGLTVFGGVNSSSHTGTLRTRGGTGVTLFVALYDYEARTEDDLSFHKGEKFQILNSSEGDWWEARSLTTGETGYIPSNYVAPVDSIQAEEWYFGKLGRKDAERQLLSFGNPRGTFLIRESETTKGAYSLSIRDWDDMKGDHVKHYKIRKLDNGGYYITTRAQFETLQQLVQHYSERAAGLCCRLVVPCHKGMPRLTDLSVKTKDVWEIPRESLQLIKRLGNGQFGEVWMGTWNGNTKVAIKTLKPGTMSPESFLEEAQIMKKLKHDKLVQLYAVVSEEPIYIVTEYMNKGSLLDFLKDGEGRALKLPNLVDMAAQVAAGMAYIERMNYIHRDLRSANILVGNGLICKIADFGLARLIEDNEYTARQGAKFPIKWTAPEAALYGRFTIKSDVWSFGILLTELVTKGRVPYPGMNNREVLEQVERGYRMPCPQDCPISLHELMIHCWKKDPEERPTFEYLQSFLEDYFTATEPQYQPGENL

Hck = Hck (UniProt P08631); assay: as above
Sequence of Hck (P08631 whole entry, looked up): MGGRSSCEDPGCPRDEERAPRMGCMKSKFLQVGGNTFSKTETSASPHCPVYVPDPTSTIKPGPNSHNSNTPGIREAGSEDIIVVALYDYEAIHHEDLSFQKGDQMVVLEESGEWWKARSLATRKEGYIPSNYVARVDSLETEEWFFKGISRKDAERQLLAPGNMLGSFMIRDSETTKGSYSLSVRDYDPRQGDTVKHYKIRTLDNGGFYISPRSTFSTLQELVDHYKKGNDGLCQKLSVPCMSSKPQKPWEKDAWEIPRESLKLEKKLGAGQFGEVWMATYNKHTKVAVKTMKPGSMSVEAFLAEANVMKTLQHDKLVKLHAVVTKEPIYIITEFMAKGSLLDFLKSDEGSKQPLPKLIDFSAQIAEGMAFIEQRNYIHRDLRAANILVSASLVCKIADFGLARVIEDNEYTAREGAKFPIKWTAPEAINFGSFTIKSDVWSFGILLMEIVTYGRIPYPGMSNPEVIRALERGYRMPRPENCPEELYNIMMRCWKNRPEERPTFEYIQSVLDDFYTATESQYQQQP

Grb2 SH2 = Grb2 SH2 (UniProt P62993); assay: SH2 binding enrichment of the phosphorylated peptide, bacterial display (enrichment ratio); higher = better substrate or ligand; peptides without Tyr show the background
Sequence of Grb2 SH2 (P62993 whole entry, looked up): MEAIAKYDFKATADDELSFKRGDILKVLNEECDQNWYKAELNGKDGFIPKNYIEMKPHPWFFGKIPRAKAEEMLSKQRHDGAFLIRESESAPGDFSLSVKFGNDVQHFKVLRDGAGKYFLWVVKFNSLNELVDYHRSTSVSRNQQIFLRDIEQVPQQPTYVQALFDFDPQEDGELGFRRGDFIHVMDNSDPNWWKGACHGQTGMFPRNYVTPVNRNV

SHP2-C SH2 = assay: as above
c-Src SH2 = assay: as above
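Throughout, for SH2 binding enrichment of the phosphorylated peptide, bacterial display: peptide library displayed on the E. coli surface as eCPX fusions, selected cells deep-sequenced, score is each peptide's frequency after selection divided by its frequency in the input.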
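Throughout, for phosphorylation enrichment, bacterial display: 11-residue human phosphosite peptides and single-mutation variants displayed on the E. coli surface, counted by deep sequencing, each peptide's frequency after selection divided by its frequency in the unselected input library; frequency after pTyr selection over input frequency; kinase dosed for 20-30% of maximal phosphorylation in three min.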

| Sequence | phosphorylation enrichment (MERTK) | phosphorylation enrichment (Fer (mouse)) | phosphorylation enrichment (c-Abl (mouse)) | phosphorylation enrichment (FGFR1) | phosphorylation enrichment (Fes) | phosphorylation enrichment (FGFR3) | phosphorylation enrichment (EPHB1) | phosphorylation enrichment (c-Src) | phosphorylation enrichment (AncSZ) | phosphorylation enrichment (Jak2) | phosphorylation enrichment (EPHB2) | phosphorylation enrichment (Fyn) | phosphorylation enrichment (Hck) | SH2 binding enrichment (Grb2 SH2) | SH2 binding enrichment (SHP2-C SH2) | SH2 binding enrichment (c-Src SH2) |
| --- | --- | --- | --- | --- | --- | --- | --- | --- | --- | --- | --- | --- | --- | --- | --- | --- |
| GEAEQYVGGGG [FAT4_Y4980] | 0.371 | 0.448 | 0.584 | 0.543 | 0.87 | 0.687 | 0.394 | 0.327 | 0.842 | 0.746 | 0.414 | 0.465 | 0.44 | 1.16 | 0.584 | 0.464 |
| EKESCYILHSS [PATJ_Y783_E779K] | 0.533 | 0.623 | 0.707 | 0.572 | 1.09 | 0.77 | 0.531 | 0.595 | 1.28 | 0.936 | 0.519 | 0.549 | 0.497 | 0.959 | 0.694 | 0.719 |
| QCTSDYPEHVC [SART3_Y541] | 0.565 | 0.668 | 1.23 | 0.929 | 1.44 | 0.969 | 0.929 | 0.583 | 1.36 | 1.64 | 0.523 | 0.605 | 0.831 | 0.939 | 0.833 | 0.866 |
| NAGDFYDLFGG [PTPN11_Y63_T59A_YF] | 2.72 | 2.43 | 0.762 | 0.455 | 1.16 | 0.769 | 0.651 | 6.02 | 1.11 | 0.971 | 0.564 | 5.68 | 3.55 | 0.642 | 0.635 | 0.497 |
| GVLDIYGFEIL [MYO1A_Y382] | 0.41 | 0.694 | 0.695 | 0.579 | 1.14 | 0.787 | 0.903 | 1.76 | 1.14 | 0.978 | 0.541 | 2.92 | 1.59 | 0.793 | 0.574 | 0.343 |
| GGGCGYNRSSG [FUS_Y232_G230C] | 0.412 | 0.434 | 0.815 | 0.448 | 0.717 | 0.465 | 0.392 | 0.435 | 0.663 | 0.701 | 0.426 | 0.422 | 0.42 | 0.802 | 0.632 | 0.531 |
| SSAETYSRMRL [NBEAL2_Y1835] | 0.412 | 0.54 | 0.509 | 0.393 | 0.577 | 0.44 | 0.443 | 0.471 | 0.513 | 0.501 | 0.436 | 0.431 | 0.709 | 0.719 | 0.724 | 0.691 |
| YGIAQYCCRMG [LRRK2_Y2023] | 4.29 | 0.902 | 3.48 | 0.605 | 0.762 | 0.583 | 1 | 0.665 | 0.983 | 0.482 | 11.2 | 0.8 | 1.02 | 1.21 | 0.936 | 0.806 |
| AVAFLYFKSIG [ADGRL4_Y301_V300L_YF] | 0.478 | 0.605 | 0.851 | 0.549 | 1.62 | 0.837 | 0.683 | 0.441 | 1.14 | 1.33 | 0.649 | 0.483 | 0.516 | 0.806 | 1.07 | 0.569 |
| GIVEDYRPTFY [ACVRL1_Y421_P424T] | 0.404 | 0.373 | 0.899 | 0.441 | 0.866 | 0.648 | 0.561 | 0.347 | 0.83 | 0.661 | 0.484 | 0.513 | 0.475 | 0.875 | 0.657 | 0.763 |
| ITLPIYTKESE [ANK2_Y1455] | 1.75 | 0.485 | 0.848 | 0.722 | 1.19 | 0.76 | 0.641 | 0.974 | 0.961 | 1.11 | 0.499 | 0.88 | 0.907 | 0.845 | 0.72 | 0.515 |
| GSERDYTFDEL [EIF2S2_Y174_E177D_YF] | 0.515 | 0.582 | 0.837 | 0.583 | 1.18 | 0.871 | 0.577 | 0.639 | 1.25 | 1.21 | 0.564 | 0.474 | 0.528 | 0.919 | 0.681 | 0.508 |
| IKNSGYISQFL [EIF2AK3_Y585_R588Q_YF] | 0.327 | 0.377 | 0.625 | 0.445 | 0.579 | 0.474 | 0.434 | 0.385 | 0.531 | 0.404 | 0.458 | 0.531 | 0.458 | 0.908 | 0.878 | 0.573 |
| PTFEHYANSTQ [SLC12A3_Y70_YF] | 0.771 | 1.14 | 0.742 | 0.818 | 1.07 | 0.988 | 0.768 | 0.433 | 1.34 | 0.742 | 0.993 | 0.852 | 0.598 | 1.43 | 0.576 | 1.09 |
| KPGLIYNKVNP [SPRED3_Y72_V71I] | 1.07 | 0.803 | 0.857 | 0.373 | 1 | 0.429 | 0.485 | 0.975 | 0.703 | 0.722 | 0.408 | 0.738 | 2.25 | 1.12 | 1.44 | 0.895 |
| LKEIHYPPYTD [ALDH3B2_Y362] | 0.573 | 0.584 | 0.763 | 0.645 | 1.17 | 0.826 | 0.735 | 0.917 | 1.18 | 1.01 | 0.744 | 0.718 | 0.929 | 0.896 | 0.975 | 0.654 |
| KLPDAYERFIL [G6PD_Y437_L440F] | 0.538 | 1.22 | 0.745 | 0.476 | 1.06 | 0.661 | 0.568 | 0.713 | 0.985 | 0.892 | 0.562 | 0.578 | 0.569 | 0.933 | 0.801 | 1.1 |
| SILAVYSKDIY [PANK2_Y400_N404I] | 2.91 | 0.45 | 0.537 | 0.518 | 0.924 | 0.713 | 0.745 | 2.84 | 1.07 | 1.04 | 0.788 | 2.43 | 2.48 | 0.897 | 0.903 | 0.726 |
| YPSLPYSPVSS [CAMKK2_Y128_C123Y] | 0.514 | 3.13 | 0.564 | 0.873 | 0.683 | 0.721 | 0.436 | 0.546 | 0.663 | 0.489 | 0.401 | 0.458 | 0.62 | 0.967 | 1.01 | 0.668 |
| SGFESYGSSSY [RPA2_Y9] | 0.382 | 0.403 | 0.718 | 0.368 | 0.765 | 0.462 | 0.341 | 0.481 | 0.582 | 0.821 | 0.478 | 0.44 | 0.474 | 0.672 | 0.708 | 0.541 |
| CLAQRYLIWEC [SCN5A_Y694_R689C] | 0.48 | 0.568 | 0.788 | 0.693 | 1.39 | 0.783 | 0.836 | 0.505 | 1.29 | 1.03 | 0.646 | 0.533 | 0.535 | 1.32 | 1.65 | 1.28 |
| RAADFYSQQMA [GBP6_Y334_YF] | 0.56 | 0.538 | 1.04 | 0.537 | 0.769 | 0.671 | 0.425 | 0.675 | 0.798 | 1.16 | 0.468 | 0.427 | 0.375 | 0.69 | 0.691 | 0.506 |
| SEDANYMRVSC [TTC3_Y1288_K1289M] | 0.455 | 0.645 | 0.7 | 0.735 | 0.958 | 0.742 | 2.98 | 0.468 | 1.03 | 0.743 | 1.42 | 0.529 | 0.563 | 0.819 | 0.746 | 0.534 |
| TLEKYYFAFPG [SLC1A1_Y51_F50Y] | 11.5 | 0.632 | 9.74 | 14.6 | 1.09 | 12 | 7.36 | 6.16 | 1.75 | 8.54 | 11.1 | 4.5 | 3.38 | 1.06 | 0.954 | 0.614 |
| TFEYRYLEDRD [CNOT3_Y746] | 0.493 | 0.472 | 0.827 | 0.935 | 1.35 | 0.848 | 0.623 | 0.537 | 1.16 | 1.02 | 0.504 | 0.545 | 0.534 | 0.76 | 0.81 | 1.01 |
| QYPDVYAREEV [CRX_Y67] | 1.8 | 1.93 | 3.34 | 0.959 | 4.98 | 1.66 | 1.57 | 3.8 | 3.78 | 5.06 | 1.82 | 1.66 | 2.18 | 1.05 | 0.812 | 0.49 |
| GPGLVYRVANK [FLNB_Y1833_G1834R] | 0.399 | 0.445 | 0.716 | 0.515 | 0.793 | 0.597 | 0.471 | 0.541 | 0.785 | 0.688 | 0.436 | 0.485 | 0.498 | 0.999 | 0.722 | 0.499 |
| GDAMLYFPSVS [GPR143_Y177_A173D_YF] | 0.726 | 0.521 | 0.674 | 0.801 | 0.823 | 0.98 | 0.511 | 0.746 | 0.721 | 1.92 | 0.446 | 0.55 | 0.692 | 0.744 | 0.632 | 0.528 |
| CDSSGYWTPEE [PAPPA2_Y908] | 0.494 | 0.556 | 0.727 | 0.579 | 1.47 | 0.783 | 0.676 | 0.508 | 1.25 | 1.22 | 0.654 | 0.454 | 0.555 | 0.967 | 1.08 | 14.9 |
